In US20190330280, “TRANSCRIPTIONAL REGULATORY FUSION POLYPEPTIDE” (Astellas Pharma Inc., published 2019):

Legend:
Test in all cases: cell_activity; human T cells, 3.0 nM protein added to medium, 24 h, 37 C
Details in all cases: tags: N-terminal GST, NTP cell-penetrating peptide, p300 core fusion
NTP-TALE-TERT-2-p300CD = molecular target: T1, NTP-TALE-TERT-2-p300CD (artificial, UniProt P14727 SEQ:29-906)
T1 chain: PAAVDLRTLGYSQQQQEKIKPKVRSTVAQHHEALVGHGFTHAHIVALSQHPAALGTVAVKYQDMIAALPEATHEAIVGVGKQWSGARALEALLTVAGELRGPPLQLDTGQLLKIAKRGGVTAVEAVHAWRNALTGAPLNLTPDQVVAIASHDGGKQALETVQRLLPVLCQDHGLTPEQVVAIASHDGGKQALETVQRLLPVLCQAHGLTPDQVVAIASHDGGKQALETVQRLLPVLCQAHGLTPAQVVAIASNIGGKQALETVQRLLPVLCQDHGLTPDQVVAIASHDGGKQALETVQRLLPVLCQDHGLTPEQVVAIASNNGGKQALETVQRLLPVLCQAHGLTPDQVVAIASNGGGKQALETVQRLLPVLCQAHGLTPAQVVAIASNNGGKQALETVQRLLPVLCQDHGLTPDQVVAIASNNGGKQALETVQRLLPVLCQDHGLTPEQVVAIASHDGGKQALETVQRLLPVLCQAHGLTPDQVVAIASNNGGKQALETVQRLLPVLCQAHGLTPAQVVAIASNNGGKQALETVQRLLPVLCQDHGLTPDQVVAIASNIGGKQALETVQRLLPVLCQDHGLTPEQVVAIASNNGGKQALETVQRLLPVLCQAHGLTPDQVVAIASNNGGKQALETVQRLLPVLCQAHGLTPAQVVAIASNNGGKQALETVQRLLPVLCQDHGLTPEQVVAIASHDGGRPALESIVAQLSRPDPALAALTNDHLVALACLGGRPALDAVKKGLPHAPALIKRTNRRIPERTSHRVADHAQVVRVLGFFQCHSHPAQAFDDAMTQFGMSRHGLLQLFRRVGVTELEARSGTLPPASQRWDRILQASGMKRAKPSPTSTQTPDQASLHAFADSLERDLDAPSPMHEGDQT
Protocol: (§1) Each NTP-TALE-Activator (NTP-TALE-TERT-1-p300CD, NTP-TALE-TERT-2-p300CD and NTP-TALE-TERT-3-p300CD) targeting human TERT, prepared in Example 1 was dialyzed at 4° C. for 3 hours against OPTI-MEM medium (Thermo Fisher Scientific Inc.) in a microdialysis column (Tomy Seiko Co., Ltd.). The concentrations after purification were 40 nM NTP-TALE-TERT-1-p300CD, 55 nM NTP-TALE-TERT-2-p300CD, and 55 nM NTP-TALE-TERT-3-p300CD. Human T cells (obtained by separation from peripheral mononuclear cells in blood collected from a healthy person) were suspended in 100 μL of KBM550 (Kohjin Bio Co., Ltd.) and seeded in a 96-well plate at 0.5×10⁴ cells/well.
(§2) The obtained human T cells were cultured for 12 hours. Then, each NTP-TALE-Activator dialyzed as mentioned above was added at 3.0 nM (final concentration) to each well (as a result of conducting studies beforehand with a plurality of concentrations, the concentration at which each NTP-TALE-Activator was most responsive was 3.0 nM). Wells to which NTP-TALE-Activator was not added were prepared as a control. The plate was left standing for 24 hours in an incubator at 37° C. and a CO₂ concentration of 5%.

NTP-TALE-TERT-3-p300CD = molecular target: T2, NTP-TALE-TERT-3-p300CD (artificial, UniProt P14727 SEQ:29-906)
T2 chain: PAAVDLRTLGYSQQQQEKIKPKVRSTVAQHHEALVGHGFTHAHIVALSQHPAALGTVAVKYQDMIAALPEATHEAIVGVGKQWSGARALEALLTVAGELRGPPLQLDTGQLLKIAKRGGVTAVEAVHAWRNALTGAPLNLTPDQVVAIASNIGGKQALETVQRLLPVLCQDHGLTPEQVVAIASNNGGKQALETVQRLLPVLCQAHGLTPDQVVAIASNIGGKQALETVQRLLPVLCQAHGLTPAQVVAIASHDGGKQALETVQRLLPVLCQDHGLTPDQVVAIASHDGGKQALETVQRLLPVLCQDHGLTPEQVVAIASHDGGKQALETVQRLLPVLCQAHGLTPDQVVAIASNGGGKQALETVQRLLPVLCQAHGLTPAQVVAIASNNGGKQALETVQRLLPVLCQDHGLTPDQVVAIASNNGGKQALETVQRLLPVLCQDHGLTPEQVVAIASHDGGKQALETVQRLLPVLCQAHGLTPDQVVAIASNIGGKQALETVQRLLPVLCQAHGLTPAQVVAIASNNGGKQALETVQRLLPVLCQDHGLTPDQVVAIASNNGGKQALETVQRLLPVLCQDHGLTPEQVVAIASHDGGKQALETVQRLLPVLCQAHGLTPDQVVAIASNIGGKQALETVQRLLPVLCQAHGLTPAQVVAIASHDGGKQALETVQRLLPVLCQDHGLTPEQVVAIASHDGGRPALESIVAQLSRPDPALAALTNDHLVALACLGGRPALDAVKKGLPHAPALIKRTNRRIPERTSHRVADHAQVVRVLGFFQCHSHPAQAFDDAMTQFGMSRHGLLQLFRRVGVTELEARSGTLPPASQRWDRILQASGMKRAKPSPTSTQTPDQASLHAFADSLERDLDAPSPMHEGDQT
Protocol: as §1, §2

NTP-TALE-TERT-1-p300CD = molecular target: T3, NTP-TALE-TERT-1-p300CD (artificial, UniProt P14727 SEQ:29-906)
T3 chain: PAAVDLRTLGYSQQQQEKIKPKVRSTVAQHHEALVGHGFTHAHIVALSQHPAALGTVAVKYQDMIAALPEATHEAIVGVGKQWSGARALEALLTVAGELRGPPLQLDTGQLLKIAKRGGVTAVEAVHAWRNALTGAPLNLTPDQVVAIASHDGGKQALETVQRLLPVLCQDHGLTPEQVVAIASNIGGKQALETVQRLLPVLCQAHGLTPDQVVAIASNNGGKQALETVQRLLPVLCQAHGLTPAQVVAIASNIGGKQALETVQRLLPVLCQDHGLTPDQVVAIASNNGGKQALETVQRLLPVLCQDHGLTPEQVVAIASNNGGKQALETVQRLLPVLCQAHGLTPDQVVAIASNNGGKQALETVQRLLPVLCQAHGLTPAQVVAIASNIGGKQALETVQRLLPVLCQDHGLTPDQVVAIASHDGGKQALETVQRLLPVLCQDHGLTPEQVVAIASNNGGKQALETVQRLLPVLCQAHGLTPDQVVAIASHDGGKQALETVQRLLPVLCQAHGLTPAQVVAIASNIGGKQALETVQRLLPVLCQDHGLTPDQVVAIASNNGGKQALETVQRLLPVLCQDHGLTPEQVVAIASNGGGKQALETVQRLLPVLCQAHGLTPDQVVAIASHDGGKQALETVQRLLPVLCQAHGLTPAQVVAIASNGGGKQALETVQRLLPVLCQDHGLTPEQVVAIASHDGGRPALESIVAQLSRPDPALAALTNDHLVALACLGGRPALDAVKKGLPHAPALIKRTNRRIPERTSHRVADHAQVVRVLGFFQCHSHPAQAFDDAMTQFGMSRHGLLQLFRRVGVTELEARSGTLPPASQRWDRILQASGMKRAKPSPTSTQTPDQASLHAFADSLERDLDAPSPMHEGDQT
Protocol: as §1, §2

B1: human TERT promoter target (AH007699.2 nt 11029-11046) (dsDNA)
DNA 1: CCCCACGTGGCGGAGGGA
DNA 2: TCCCTCCGCCACGTGGGG
activity (NTP-TALE-TERT-2-p300CD): ~3.5 fold TERT mRNA

B2: human TERT enhancer target (AH007699.2 nt 6501-6518) (dsDNA)
DNA 1: TAGACCCTGGCAGGCACT
DNA 2: AGTGCCTGCCAGGGTCTA
activity (NTP-TALE-TERT-3-p300CD): ~2 fold TERT mRNA

B3: human TERT enhancer target (AH007699.2 nt 49444-49461) (dsDNA)
DNA 1: TCAGAGGGACGCAGTCTT
DNA 2: AAGACTGCGTCCCTCTGA
activity (NTP-TALE-TERT-1-p300CD): ~17 fold TERT mRNA
